In patent publication US5668000A, “Mitochondrial P450” (Sumitomo Chemical Company, Limited, priority 1990, dated 1997):

Experiments:
[1] = expressed in yeast
[2] = 27-hydroxylation activity of THC in yeast subcellular fractions with added ADX, ADR and NADPH; assay type: biochemical; conditions: expressed in yeast
Method: (§1) A mitochondrial fraction prepared from the strain AH22/pAC25 and a microsomal fraction prepared from the strain AH22/pAMS25 were used for the measurement of hydroxylation activities. Subcellular fractionation was prepared from a transformant yeast strain according to the following method. About 4×10^10 cells were collected from a culture containing about 2×10^7 cells/ml, suspended in Zymolyase solution [10 mM Tris-HCl (pH 7.5), 2.0M sorbitol, 0.1 mM dithiothreitol, 0.1 mM EDTA, 0.3 mg/ml Zymolyase 100T] and incubated at 30° C. for 1 hour to prepare spheroplasts. The spheroplasts were suspended in a sonication buffer (10 mM Tris-HCl (pH 7.5), 0.65M sorbitol, 0.1 mM dithiothreitol, 0.1 mM EDTA, 1 μg/ml leupeptin, 1 μg/ml pepstatin) and homogenized with a Teflon homogenizer to disrupt the cells.
(§2) Precipitate 1 was removed by centrifugation at 3000×g for 5 minutes to give supernatant 1'. Precipitate 1 was resuspended in a sonication buffer, homogenized again, centrifuged at 3000×g for 5 minutes to give precipitate 1 (undisrupted cells and nucleus fractions) and supernatant 1". […]
(§3) Reaction systems (2 ml) shown in the following but NADPH were mixed and preincubated at 37° C. for 5 minutes, and reaction was initiated by the addition of NADPH. […] The benzene layer obtained by centrifugation was dried completely and analyzed by HPLC under the condition listed below. […]

[3] = 25-hydroxylation activity of 1α-hydroxyvitamin D3 in yeast subcellular fractions with added ADX, ADR and NADPH; assay type: biochemical; conditions: expressed in yeast
Method: as §1, §2, §3

B1: P450c25: rat liver mitochondrial P450c25 expressed in yeast (protein, UniProt P17178 33-533, looked up)
Sterol 26-hydroxylase, …: AIPAALRDHESTEGPGTGQDRPRLRSLAELPGPGTLRFLFQLFLRGYVLHLHELQALNKAKYGPMWTTTFGTRTNVNLASAPLLEQVMRQEGKYPIRDSMEQWKEHRDHKGLSYGIFITQGQQWYHLRHSLNQRMLKPAEAALYTDALNEVISDFIARLDQVRTESASGDQVPDVAHLLYHLALEAICYILFEKRVGCLEPSIPEDTATFIRSVGLMFKNSVYVTFLPKWSRPLLPFWKRYMNNWDNIFSFGEKMIHQKVQEIEAQLQAAGPDGVQVSGYLHFLLTKELLSPQETVGTFPELILAGVDTTSNTLTWALYHLSKNPEIQEALHKEVTGVVPFGKVPQNKDFAHMPLLKAVIKETLRLYPVVPTNSRIITEKETEINGFLFPKNTQFVLCHYVVSRDPSVFPEPESFQPHRWLRKREDDNSGIQHPFGSVPFGYGVRSCLGRRIAELEMQLLLSRLIQKYEVVLSPGMGEVKSVSRIVLVPSKKVSLRFLQRQ
exhibited hydroxylation activities: hydroxylation activity to vitamin D3 [1] | hydroxylation activity to THC [2] | hydroxylation activity to 1α-hydroxyvitamin D3 [3]
